{"source": "patent US20080219947A1", "key": {"[1]": {"target": "p29.β2m^b.L^d single chain trimer (murine) (UniProt P01887)", "assay": "flow cytometry on DLD-1 transfectants, 64-3-7 against 30-5-7 staining"}, "[2]": {"target": "QL9.β2m^b.L^d single chain trimer (murine) (UniProt P01887)", "assay": "flow cytometry on DLD-1 transfectants, 64-3-7 against 30-5-7 staining"}, "[3]": {"target": "β2m^b.L^d single chain dimer (murine) (UniProt P01887)", "assay": "flow cytometry on DLD-1 transfectants, 64-3-7 against 30-5-7 staining"}, "[4]": {"target": "MCMV.β2m^b.L^d single chain trimer (murine) (UniProt P01887)", "assay": "flow cytometry on DLD-1 transfectants, 64-3-7 against 30-5-7 staining"}, "[5]": {"target": "β2-microglobulin(L20).etK^b single chain dimer (murine) (UniProt P01887)", "assay": "flow cytometry on LM1.8 transfectants"}, "[6]": {"target": "epitope-tagged K^b (K^bR48Q.R50P), unattached (murine) (UniProt P01901)", "sequence (P01901 22-305, stated change not applied)": "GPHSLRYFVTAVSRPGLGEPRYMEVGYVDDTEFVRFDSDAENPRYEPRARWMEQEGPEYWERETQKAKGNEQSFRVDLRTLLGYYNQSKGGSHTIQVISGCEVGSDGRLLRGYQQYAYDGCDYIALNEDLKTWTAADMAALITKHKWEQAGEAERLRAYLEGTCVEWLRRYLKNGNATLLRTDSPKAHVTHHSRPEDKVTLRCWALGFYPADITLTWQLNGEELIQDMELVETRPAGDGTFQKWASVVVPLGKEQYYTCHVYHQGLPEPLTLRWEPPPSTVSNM", "assay": "flow cytometry on LM1.8 transfectants"}}, "data": [{"substance": "mAb 64-3-7 (antibody)", "values": [{"measurement": "percent of surface molecules detected in an open conformation", "setting": "[1]", "result": 8, "unit": "%"}, {"measurement": "percent of surface molecules detected in an open conformation", "setting": "[2]", "result": 22, "unit": "%"}, {"measurement": "percent of surface molecules detected in an open conformation", "setting": "[3]", "result": 39, "unit": "%"}, {"measurement": "percent of surface molecules detected in an open conformation", "setting": "[4]", "result": 22, "unit": "%"}, {"measurement": "open conformers as a fraction of the sum of B8-24-3 and 64-3-7 fluorescence intensity", "setting": "[5]", "result": "> 10", "unit": "%"}, {"measurement": "open conformers as a fraction of the sum of B8-24-3 and 64-3-7 fluorescence intensity", "setting": "[6]", "result": "> 10", "unit": "%"}]}]}
